Numbering of substitutions follows the chain as printed. *1 amine or outer side, *2 acyl side, *3 side chain or, on linkers, in order; H or OH if unused. Where no end group is shown, it is not given here. Side-chain parts run from the residue outwards. [ ]: non-standard residue; d: D form. The star is where a group is joined. αMePhe(2-F) = C[C@](N)(Cc1ccccc1F)C(=O)O; γGlu = O=C(O)[C@H](CCC(=O)[*:2])N[*:1]; C14 diacid = O=C(O)CCCCCCCCCCCCC(=O)*; αMeY = C[C@](N)(Cc1ccc(O)cc1)C(=O)O; αMeF = C[C@](N)(Cc1ccccc1)C(=O)O; αMeL = CC(C)C[C@](C)(N)C(=O)O; Orn = NCCC[C@H](N)C(=O)O; AEEA = NCCOCCOCC(=O)O; Aib = CC(C)(N)C(=O)O
T1: human GIP receptor (human, UniProt P48546 22-466)
T1 sequence (looked up): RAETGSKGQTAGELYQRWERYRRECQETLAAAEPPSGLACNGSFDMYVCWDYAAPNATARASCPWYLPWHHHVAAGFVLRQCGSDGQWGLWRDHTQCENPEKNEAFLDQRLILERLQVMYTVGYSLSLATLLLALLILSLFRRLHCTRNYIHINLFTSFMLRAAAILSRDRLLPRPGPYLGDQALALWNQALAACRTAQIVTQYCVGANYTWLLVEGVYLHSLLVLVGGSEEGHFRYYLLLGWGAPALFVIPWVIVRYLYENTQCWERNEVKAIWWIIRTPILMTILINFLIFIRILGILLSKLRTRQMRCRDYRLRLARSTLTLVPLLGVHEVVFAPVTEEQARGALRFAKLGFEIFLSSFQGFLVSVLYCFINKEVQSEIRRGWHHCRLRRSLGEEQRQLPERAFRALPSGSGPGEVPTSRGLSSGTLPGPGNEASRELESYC

B1: Y-Aib-EGT-αMeF(2F)-TSD-4Pal-GI-αMeL-LD-Orn-K((2-[2-(2-Amino-ethoxy)-ethoxy]-acetyl)2-(γ-Glu)-CO-(CH2)12-CO2H)AQ-Aib-EFI-(D-Glu)-αMeY-LIEGGK((2-[2-(2-Amino-ethox … (peptide)
peptide: YXEGTXTSDXGIXLDXKAQXEFIXXLIEGGKSSGAPPPS
modifications: Aib2, αMeF(2F)6, 4Pal10, αMeL13, Orn16, Aib20, D-Glu24, αMeY25; acylated K17, K31 (groups as in name); C-terminal amide
B2: Y-Aib-EGT-αMeF(2F)-TSD-4Pal-SI-αMeL-LD-Orn-K((2-[2-(2-Amino-ethoxy)-ethoxy]-acetyl)2-(γ-Glu)-CO-(CH2)12-CO2H)AQ-Aib-E-αMeF(2F)-I-(D-Glu)-αMeY-LIEGGK((2-[2-(2-Am … (peptide)
peptide: B1 peptide with G11S, F22X
modifications: Aib2, αMeF(2F)6, 4Pal10, αMeL13, Orn16, Aib20, αMeF(2F)22, D-Glu24, αMeY25; acylated K17, K31 (groups as in name); C-terminal amide
B3: Y-Aib-EGT-αMeF(2F)-TSD-OMeY-SI-αMeL-LD-Orn-K((2-[2-(2-Amino-ethoxy)-ethoxy]-acetyl)2-(γ-Glu)-CO-(CH2)12-CO2H)AQ-Aib-EFI-(D-Glu)-αMeY-LIEGGK((2-[2-(2-Amino-ethox … (peptide)
peptide: B1 peptide with G11S
modifications: Aib2, αMeF(2F)6, OMeY10, αMeL13, Orn16, Aib20, D-Glu24, αMeY25; acylated K17, K31 (groups as in name); C-terminal amide
B4: Y-Aib-EGT-αMeF(2F)-TSD-4Pal-SI-αMeL-LD-Orn-K((2-[2-(2-Amino-ethoxy)-ethoxy]-acetyl)2-(γ-Glu)-CO-(CH2)12-CO2H)AQ-Aib-E-(2FPhe)-I-(D-Glu)-αMeY-LIEGGK((2-[2-(2-Ami … (peptide)
peptide: B1 peptide with G11S, F22X
modifications: Aib2, αMeF(2F)6, 4Pal10, αMeL13, Orn16, Aib20, 2FPhe22, D-Glu24, αMeY25; acylated K17, K31 (groups as in name); C-terminal amide
B5: Y-Aib-EGT-αMeF(2F)-TSD-Ac5c-SI-αMeL-LD-Orn-K((2-[2-(2-Amino-ethoxy)-ethoxy]-acetyl)2-(γ-Glu)-CO-(CH2)12-CO2H)AQ-Aib-E-αMeF-I-(D-Glu)-αMeY-LIEGGK((2-[2-(2-Amino- … (peptide)
peptide: B1 peptide with G11S, F22X
modifications: Aib2, αMeF(2F)6, Ac5c10, αMeL13, Orn16, Aib20, αMeF22, D-Glu24, αMeY25; acylated K17, K31 (groups as in name); C-terminal amide
B6: Y-Aib-EGT-αMeF(2F)-TSD-4Pal-SI-αMeL-LD-Orn-K((2-[2-(2-Amino-ethoxy)-ethoxy]-acetyl)2-(γ-Glu)-CO-(CH2)12-CO2H)AQ-Aib-E-(3ClPhe)-I-(D-Glu)-αMeY-LIEGGK((2-[2-(2-Am … (peptide)
peptide: B1 peptide with G11S, F22X
modifications: Aib2, αMeF(2F)6, 4Pal10, αMeL13, Orn16, Aib20, 3ClPhe22, D-Glu24, αMeY25; acylated K17, K31 (groups as in name); C-terminal amide
B7: Y-Aib-EGT-αMeF(2F)-TSD-aMeV-SI-αMeL-LD-Orn-K((2-[2-(2-Amino-ethoxy)-ethoxy]-acetyl)2-(γ-Glu)-CO-(CH2)12-CO2H)AQ-Aib-EFI-(D-Glu)-αMeY-LIEGGK((2-[2-(2-Amino-ethox … (peptide)
peptide: B1 peptide with G11S
modifications: Aib2, αMeF(2F)6, αMeV10, αMeL13, Orn16, Aib20, D-Glu24, αMeY25; acylated K17, K31 (groups as in name); C-terminal amide
B8: Y-Aib-EGT-αMeF(2F)-TSDY-Aib-I-αMeL-LD-Orn-K((2-[2-(2-Amino-ethoxy)-ethoxy]-acetyl)2-(γ-Glu)-CO-(CH2)12-CO2H)AQ-Aib-EFI-(D-Glu)-αMeY-LIEGGK((2-[2-(2-Amino-ethoxy … (peptide)
peptide: B1 peptide with X10Y, G11X
modifications: Aib2, αMeF(2F)6, Aib11, αMeL13, Orn16, Aib20, D-Glu24, αMeY25; acylated K17, K31 (groups as in name); C-terminal amide
B9: Y-Aib-EGT-αMeF(2F)-TSD-4Pal-SI-αMeL-LD-Orn-K((2-[2-(2-Amino-ethoxy)-ethoxy]-acetyl)2-(γ-Glu)-CO-(CH2)12-CO2H)AQ-Aib-Orn-FI-(D-Glu)-αMeY-LIEGGK((2-[2-(2-Amino-et … (peptide)
peptide: B1 peptide with G11S, E21X
modifications: Aib2, αMeF(2F)6, 4Pal10, αMeL13, Orn16, Aib20, Orn21, D-Glu24, αMeY25; acylated K17, K31 (groups as in name); C-terminal amide
B10: Y-Aib-EGT-αMeF(2F)-TSD-4Pal-SI-αMeL-LD-Orn-K((2-[2-(2-Amino-ethoxy)-ethoxy]-acetyl)2-(γ-Glu)-CO-(CH2)12-CO2H)AQ-Aib-E-(2ClPhe)-I-(D-Glu)-αMeY-LIEGGK((2-[2-(2-Am … (peptide)
peptide: B1 peptide with G11S, F22X
modifications: Aib2, αMeF(2F)6, 4Pal10, αMeL13, Orn16, Aib20, 2ClPhe22, D-Glu24, αMeY25; acylated K17, K31 (groups as in name); C-terminal amide
B11: Y-Aib-EGT-αMeF(2F)-TSD-Nle-SI-αMeL-LD-Orn-K((2-[2-(2-Amino-ethoxy)-ethoxy]-acetyl)2-(γ-Glu)-CO-(CH2)12-CO2H)AQ-Aib-EFI-(D-Glu)-αMeY-LIEGGK((2-[2-(2-Amino-ethoxy … (peptide)
peptide: B1 peptide with G11S
modifications: Aib2, αMeF(2F)6, Nle10, αMeL13, Orn16, Aib20, D-Glu24, αMeY25; acylated K17, K31 (groups as in name); C-terminal amide
B12: Y-Aib-EGT-αMeF(2F)-TSD-Ac5c-SI-αMeL-LD-Orn-K((2-[2-(2-Amino-ethoxy)-ethoxy]-acetyl)2-(γ-Glu)-CO-(CH2)12-CO2H)AQ-Aib-EFI-(D-Glu)-αMeY-LIEGGK((2-[2-(2-Amino-ethox … (peptide)
peptide: B1 peptide with G11S
modifications: Aib2, αMeF(2F)6, Ac5c10, αMeL13, Orn16, Aib20, D-Glu24, αMeY25; acylated K17, K31 (groups as in name); C-terminal amide
B13: Y-Aib-EGT-αMeF(2F)-TSD-4Pal-SI-αMeL-LD-Orn-K((2-[2-(2-Amino-ethoxy)-ethoxy]-acetyl)2-(γ-Glu)-CO-(CH2)12-CO2H)AQ-Aib-EFIG-αMeY-LIEGGK((2-[2-(2-Amino-ethoxy)-etho … (peptide)
peptide: B1 peptide with G11S, X24G
modifications: Aib2, αMeF(2F)6, 4Pal10, αMeL13, Orn16, Aib20, αMeY25; acylated K17, K31 (groups as in name); C-terminal amide
B14: Y-Aib-EGT-αMeF(2F)-TSDVSI-αMeL-LD-Orn-K((2-[2-(2-Amino-ethoxy)-ethoxy]-acetyl)2-(γ-Glu)-CO-(CH2)12-CO2H)AQ-Aib-EFI-(D-Glu)-αMeY-LIEGGK((2-[2-(2-Amino-ethoxy)-et … (peptide)
peptide: B1 peptide with X10V, G11S
modifications: Aib2, αMeF(2F)6, αMeL13, Orn16, Aib20, D-Glu24, αMeY25; acylated K17, K31 (groups as in name); C-terminal amide
B15: Y-Aib-EGT-αMeF-TSD-4Pal-SI-αMeL-LD-Orn-K((2-[2-(2-Amino-ethoxy)-ethoxy]-acetyl)2-(γ-Glu)-CO-(CH2)12-CO2H)AQ-Aib-EFI-(D-Glu)-αMeF-LIEGGK((2-[2-(2-Amino-ethoxy)-e … (peptide)
peptide: B1 peptide with G11S
modifications: Aib2, αMeF6, 4Pal10, αMeL13, Orn16, Aib20, D-Glu24, αMeF25; acylated K17, K31 (groups as in name); C-terminal amide
B16: Y-Aib-EGT-αMeF(2F)-TSD-hTyr-SI-αMeL-LD-Orn-K((2-[2-(2-Amino-ethoxy)-ethoxy]-acetyl)2-(γ-Glu)-CO-(CH2)12-CO2H)AQ-Aib-EFI-(D-Glu)-αMeY-LIEGGK((2-[2-(2-Amino-ethox … (peptide)
peptide: B1 peptide with G11S
modifications: Aib2, αMeF(2F)6, hTyr10, αMeL13, Orn16, Aib20, D-Glu24, αMeY25; acylated K17, K31 (groups as in name); C-terminal amide
B17: Y-Aib-EGT-αMeF(2F)-TSD-2Nal-SI-αMeL-LD-Orn-K((2-[2-(2-Amino-ethoxy)-ethoxy]-acetyl)2-(γ-Glu)-CO-(CH2)12-CO2H)AQ-Aib-EFI-(D-Glu)-αMeY-LIEGGK((2-[2-(2-Amino-ethox … (peptide)
peptide: B1 peptide with G11S
modifications: Aib2, αMeF(2F)6, 2Nal10, αMeL13, Orn16, Aib20, D-Glu24, αMeY25; acylated K17, K31 (groups as in name); C-terminal amide
B18: Y-Aib-EGT-αMeF(2F)-TSDV-Aib-I-αMeL-LD-Orn-K((2-[2-(2-Amino-ethoxy)-ethoxy]-acetyl)2-(γ-Glu)-CO-(CH2)12-CO2H)AQ-Aib-E-αMeF-I-(D-Glu)-αMeY-LIEGGK((2-[2-(2-Amino-e … (peptide)
peptide: Y[Aib]EGT[αMePhe(2-F)]TSDV[Aib]I[αMeL]LD[Orn]K([AEEA-AEEA-γGlu-C14 diacid])AQ[Aib]E[αMeF]I[dE][αMeY]LIEGGK([AEEA-AEEA-γGlu-C14 diacid])SSGAPPPS-NH2

target: human glucagon receptor (human, UniProt P47871 26-477); assay: cell-based or functional assay

| Binder | cAMP EC50 (1.0% HSA) [nM] |
| --- | --- |
| B1 | > 9950 |
| B2 | > 9950 |
| B3 | > 9950 |
| B4 | > 9950 |
| B5 | > 9950 |
| B6 | > 9950 |
| B7 | > 9950 |
| B8 | > 9950 |
| B9 | > 9950 |
| B10 | > 9950 |
| B11 | > 9950 |
| B12 | > 9950 |
| B13 | > 9950 |
| B14 | > 9950 |
| B15 | > 9950 |
| B16 | > 9950 |
| B17 | > 9950 |
| B18 | > 9950 |

target: T1, human GIP receptor; assay: cell-based or functional assay

| Binder | cAMP EC50 (1.0% HSA) [nM] | cAMP Emax (1.0% HSA) [%] |
| --- | --- | --- |
| B1 | 2.61 | 98.3 |
| B2 | 0.591 | 80.3 |
| B3 | 1.12 | – |
| B4 | 0.771 | – |
| B5 | 2.81 | – |
| B6 | 1.27 | – |
| B7 | 18.6 | – |
| B8 | 1.81 | 91.4 |
| B9 | 0.35 | 81.3 |
| B10 | 0.744 | 92.8 |
| B11 | 1.2 | – |
| B12 | 3.53 | – |
| B13 | 0.52 | 95.9 |
| B14 | 3.81 | 104 |
| B15 | 2.12 | – |
| B16 | 1.52 | – |
| B17 | 4.55 | – |
| B18 | 5.58 | 92 |

target: human GLP-1 receptor (human, UniProt P43220 24-463); assay: cell-based or functional assay

| Binder | cAMP EC50 (1.0% HSA) [nM] | cAMP Emax (1.0% HSA) [%] |
| --- | --- | --- |
| B1 | 402 | 123 |
| B2 | 209 | – |
| B3 | 21.6 | – |
| B4 | 47.6 | 98 |
| B5 | 145 | 113 |
| B6 | 34 | 85.8 |
| B7 | 37.8 | – |
| B8 | 27.8 | – |
| B9 | 11 | – |
| B10 | 36.9 | 89.7 |
| B11 | 28.5 | – |
| B12 | 13.2 | 89.3 |
| B13 | 12.3 | 95.8 |
| B14 | 23.4 | 96.6 |
| B15 | 118 | – |
| B16 | 16.2 | – |
| B17 | 39.3 | – |
| B18 | 66 | – |

Source: US20230265151A1, “GIP/GLP1 CO-AGONIST COMPOUNDS” (priority 2020, published 2023)
